Data on one molecule can be found in US20250319180A1 (BLUEFIN BIOMEDICINE, published 2025).

Test [1] concerns the target T1, recombinant human LY6H-ECD (C-terminal histidine tag) (human, UniProt O94772 26-115).
T1 construct: The ectodomain was cloned by PCR with a non-native signal peptide and a C-terminal histidine tag; also called recombinant LY6H; hLY6H-ECD; not shown: C-terminal histidine tag
T1 sequence (looked up): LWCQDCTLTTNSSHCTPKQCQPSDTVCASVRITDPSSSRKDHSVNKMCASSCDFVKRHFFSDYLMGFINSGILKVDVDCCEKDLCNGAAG
In words: Octet (bio-layer interferometry), table row Octet; antigen not named on the sheet, recombinant human LY6H per paragraph 455 and Table 8 (Table 8 prints 33 for 1F8). The protocol:
(§1) Affinity: The affinity of antibodies to various recombinant LY6H protein was determined on an Octet Red™ instrument. After loading reagents into a 96-well plate, the Octet Red with Protein A-conjugated biosensors was programmed as follows: 30 seconds for baseline #1; 120 seconds to immobilize the antibody; 30 seconds for baseline #2; 300 seconds for association of antibody to recombinant LY6H; and 300-600 seconds for dissociation of recombinant LY6H from the antibody.
For orientation: Biolayer interferometry detects binding as a change in optical thickness at a sensor tip.

The target in test [2] is T2, Macaca fascicularis LY6H expressed on 293T cells (plasmid BBP 492/598, M1-P140 plus Myc-DDK) (Macaca fascicularis, UniProt Q4R5M8 26-115).
T2 construct: Full construct as encoded; also called monkey LY6H; not shown: Myc-DDK tag at the C-terminus
T2 sequence: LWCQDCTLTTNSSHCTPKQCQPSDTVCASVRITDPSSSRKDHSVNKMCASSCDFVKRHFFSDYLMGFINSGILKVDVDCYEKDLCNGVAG
Nature of the test: on-cell affinity by flow cytometry: unconjugated 1F8 (0.05-100 nM) competes with 1 nM PE-conjugated 1F8 on 293T cells expressing Macaca fascicularis LY6H (per legend paragraph 131); table row 293T-mmLY6H. How it is done:
Serial diluted antibodies were incubated with 293 cells expressing either human or Macaca fascicularis on ice for 4 hours, after a brief wash. Acquisition of the MFI (Median Fluorescent Intensity) was performed on a MACSQuant® Flow Cytometers (Miltenyi Biotec). On cell affinity (Kd) was calculated using dose-response EC50 shift by global fitting from GraphPad Prism™.
Serial diluted antibodies were incubated with live cells on ice for 4 hours, after a brief wash. Acquisition of the MFI (Median Fluorescent Intensity) was performed on a MACSQuant® Flow Cytometers (Miltenyi Biotec). On cell affinity (Kd) was calculated using Dose-response EC₅₀ shift by global fitting from GraphPad Prism™.
In general terms: A flow cytometer gives signals particle by particle.

The target in test [3] is T3, human LY6H, endogenous on cancer cell lines (H446, DMS79, H526, MOLT3, KE-37) (human, UniProt O94772 26-115).
T3 construct: Endogenous protein on human SCLC and T-ALL cell lines
T3 sequence (looked up): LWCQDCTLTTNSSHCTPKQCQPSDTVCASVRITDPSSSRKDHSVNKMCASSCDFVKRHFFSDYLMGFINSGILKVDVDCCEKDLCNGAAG
In words: flow cytometry, antibody titrated 0.1-100 nM on MOLT3 cells, MFI; lower panel and table, column MOLT3_EC50 (nM). The protocol: (§2) The assay uses 3-5 fold dilutions (from 100 nM to 0.1 nM) of antibody of a stock antibody concentration (100 nM) in binding buffer. Serial diluted antibodies were incubated with live cells on ice for 30 minutes, after a brief wash, cells were incubated with Alexa Fluro® 488-conjugated anti-human IgG secondary antibody @1:100, or 15 μg/ml (709-546-149, Jackson ImmunoResearch). Acquisition of the MFI (Median Fluorescent Intensity) was performed on a MACSQuant® Flow Cytometers (Miltenyi Biotec). EC₅₀ was calculated using Dose-response EC₅₀ shift by global fitting from GraphPad Prism.
(§3) An estimate of affinity is interpreted from one-half the concentration at which antibody binding first achieves saturation.

Test [4] concerns the target T3, human LY6H, endogenous on cancer cell …. Nature of the test: flow cytometry, antibody titrated 0.1-100 nM on DMS79 cells, MFI; lower panel and table, column DMS79_EC50 (nM). The protocol:
as §2, §3

In test [5] the target is T1, recombinant human LY6H-ECD (C-terminal …). In words: Octet Red BLI, antibody on Protein A biosensor, recombinant human LY6H in solution. How it is done: as §1

B1: 1F8 (antibody, V domains shown)
VH: QVQLVESGGGVVQPGRSLRLSCAASGFTFSNYGMHWVRQAPGKGLEWVAVIWYDGSYKYYADSVKGRFTISRDNSKNTLYLQMNSLRTEDTAVYYCARSIVVVTATLDYWGQGTLVTVSS
VL: not shown
notes: also called 1F8_25B6; IF8
The term Kd denotes the concentration at which binding is half-saturated. As usually defined, the EC50 is the concentration needed to bring the measured effect to its halfway point. High values mean a need for much substance, low ones an effect from little substance. For the molecule B1, the dissociation constant Kd in test [1] amounted to 31 nM; in test [2], 21 nM; in test [5] it was 33 nM. Moreover, the 50% effective concentration (EC50) came to 2.7 nM in test [3] and 3.3 nM in test [4].
